US20240158497A1 (published 2024)
Values belong to the binder of their own block, whether it stands above or below them.

Tests used:
[1] = biological target: T1, human gp130 expressed endogenously on IMR-32/Stat3-luc cells (human, UniProt P40189 23-918); assay: cell-based or functional assay
T1 sequence: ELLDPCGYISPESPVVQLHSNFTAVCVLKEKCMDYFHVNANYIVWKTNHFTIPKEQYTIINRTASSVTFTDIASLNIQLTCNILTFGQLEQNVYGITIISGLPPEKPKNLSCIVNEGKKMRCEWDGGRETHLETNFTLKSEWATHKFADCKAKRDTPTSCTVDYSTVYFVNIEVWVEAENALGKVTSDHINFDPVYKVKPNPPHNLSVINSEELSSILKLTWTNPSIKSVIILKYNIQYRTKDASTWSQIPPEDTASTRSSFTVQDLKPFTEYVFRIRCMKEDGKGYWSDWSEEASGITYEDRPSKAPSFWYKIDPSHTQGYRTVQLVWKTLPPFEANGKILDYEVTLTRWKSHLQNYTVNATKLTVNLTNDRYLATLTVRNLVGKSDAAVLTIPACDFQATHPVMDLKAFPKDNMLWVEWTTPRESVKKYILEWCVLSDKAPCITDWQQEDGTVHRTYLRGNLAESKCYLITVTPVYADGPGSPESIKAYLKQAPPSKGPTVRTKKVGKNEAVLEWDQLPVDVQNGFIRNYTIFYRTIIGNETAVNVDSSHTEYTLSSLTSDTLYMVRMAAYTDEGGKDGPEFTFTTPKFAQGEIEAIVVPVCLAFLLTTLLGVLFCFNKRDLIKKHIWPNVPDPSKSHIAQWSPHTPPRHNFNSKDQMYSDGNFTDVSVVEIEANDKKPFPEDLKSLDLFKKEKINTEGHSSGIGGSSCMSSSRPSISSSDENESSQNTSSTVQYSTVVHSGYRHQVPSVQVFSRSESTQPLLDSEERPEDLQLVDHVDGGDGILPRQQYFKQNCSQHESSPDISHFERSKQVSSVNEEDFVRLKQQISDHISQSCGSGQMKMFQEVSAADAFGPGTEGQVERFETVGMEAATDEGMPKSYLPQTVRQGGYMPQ

[2] = biological target: T2, full length human GP130 (L2V natural variant) on HEK293/Stat3-luc/gp130-2X Sort cells (human, UniProt P40189 23-918); assay: FACS, 200 nM antibody on HEK293/gp130 2X Sort cells
T2 construct: whole, on cells; Stably over-expressed on HEK293 cells, sorted twice for high expression; also called HEK293/gp130 2X Sort
T2 sequence (looked up): T1 sequence
Procedure: For the FACS analysis, 0.5×10^6 cells/well of HEK293 parental cells, HEK293/Stat3-luc/gp130-2 X Sort cells, and HEK293/hLEPR-GPI cells, were incubated with 200 nM of the conventional antibodies against either GP130 or LEPR or with LEPRxGP130 bispecific antibodies, along with isotype control antibodies at 4° C. in PBS (without calcium and magnesium) containing 2% FBS.
Cells were fixed using BD CytoFix™ (Becton Dickinson, #554655) and analyzed on an IQue® (Intellicyt) Flow Cytometer. Unstained and secondary antibody alone controls were also tested for all cell lines. The results were analyzed using ForeCyt® (IntelliCyt) and FlowJo version 10 softwares to determine the geometric means of fluorescence for viable cells.

[3] = biological target: T3, Macaca Fascicularis GP130 extracellular domain expressed with a C-terminal myc-myc-hexahistidine tag (Macaca fascicularis, UniProt P40189 23-619 (human entry)); assay: SPR, bsAb captured by anti-hFc, 37C
T3 construct: also called mfGP130-MMH; mfGP130-mmH
T3 chain: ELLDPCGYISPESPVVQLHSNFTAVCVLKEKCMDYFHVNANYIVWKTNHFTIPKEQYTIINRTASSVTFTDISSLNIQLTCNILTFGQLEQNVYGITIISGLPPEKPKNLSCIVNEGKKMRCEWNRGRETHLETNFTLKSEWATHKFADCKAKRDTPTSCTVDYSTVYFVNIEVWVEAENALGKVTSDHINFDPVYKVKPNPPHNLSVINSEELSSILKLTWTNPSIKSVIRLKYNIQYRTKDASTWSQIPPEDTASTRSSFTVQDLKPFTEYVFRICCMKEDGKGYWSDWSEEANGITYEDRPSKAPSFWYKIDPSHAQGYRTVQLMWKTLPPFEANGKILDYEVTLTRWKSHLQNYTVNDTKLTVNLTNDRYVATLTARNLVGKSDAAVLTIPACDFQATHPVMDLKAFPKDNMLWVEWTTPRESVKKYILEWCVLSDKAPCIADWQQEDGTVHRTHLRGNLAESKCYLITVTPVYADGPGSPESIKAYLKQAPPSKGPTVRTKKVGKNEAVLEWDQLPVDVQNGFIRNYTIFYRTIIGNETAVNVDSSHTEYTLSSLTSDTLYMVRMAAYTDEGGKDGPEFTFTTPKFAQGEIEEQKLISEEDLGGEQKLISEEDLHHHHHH
Method in brief: (§1)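 Anti-hFc-captured bispecific antibodies received 3-fold serial dilutions of LEPR or GP130 (100 nM–3.7 nM) in HBS-ET, pH 7.4, injected for 4 min with 10 min dissociation at 25 °C or 37 °C. ka and kd came from a 1:1 binding model with mass transport limitation, and KD and t½ were calculated from these rate constants.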

[4] = biological target: T4, human GP130 extracellular domain expressed with a C-terminal myc-myc-hexahistidine tag (human, UniProt P40189 23-619); assay: SPR, bsAb captured by anti-hFc, 37C
T4 construct: also called hGP130-MMH; hGP130-mmH
Method in brief: as §1

B1: MAb16666 (antibody, V domains shown)
VH: EVQLVESGGGLVQSGGSLRLSCAASGFTFSRYEMNWVRQAPGKGLEWVAYISNTGTTRDYSDSVKGRFTISRDNAKNSLYLQMSSLRVEDTAVYYCVREKFSGTSDWFDPWGQGTLVTVSS
VL: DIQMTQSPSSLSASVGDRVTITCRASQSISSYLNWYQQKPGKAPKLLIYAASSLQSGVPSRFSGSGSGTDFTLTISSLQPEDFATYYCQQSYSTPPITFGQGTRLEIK
notes: hIgG4 isotype control used
% inhibition; CNTF (20 pM) [1]: 95%
IC50 [M]; CNTF (20 pM) [1]: 7.1e-10 M

B4: MAb16618 (antibody, V domains shown)
VH: QVQLQESGPGLVKPSETLSLTCTVSGGSISNYYWTWIRQPPGKGLEWIGHISNSGTTNYNPSLKSRVTISVDTSKNQFSLKLTSVTAADTAVYYCARLPLGIAAVDTDYYYYFGMDVWGQGTTVTVSS
VL: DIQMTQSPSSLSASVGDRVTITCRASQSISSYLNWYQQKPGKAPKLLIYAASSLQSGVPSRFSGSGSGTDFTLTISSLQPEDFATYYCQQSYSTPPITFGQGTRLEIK
notes: hIgG4 isotype control used
% inhibition; CNTF (20 pM) [1]: 33%
% inhibition; LIF (20 pM) [1]: 40%
% inhibition; OSM (100 pM) [1]: 52%
IC50 [M]; CNTF (20 pM) [1]: > 1e-07 M
IC50 [M]; LIF (20 pM) [1]: > 1e-07 M
IC50 [M]; OSM (100 pM) [1]: > 5e-08 M

B5: MAb16673 (antibody, V domains shown)
VH: EVQLVQSGAEVKKPGESLKISCKGSGYSFTSYWIDWVRQMPGKGLEWMGIIYPDDSDTRYSPSFQGQVTMSVDKSISTAYLQWSSLKASDTAIYYCARHERGIVEAGTDYYYYYGMDVWGQGTTVTVSS
VL: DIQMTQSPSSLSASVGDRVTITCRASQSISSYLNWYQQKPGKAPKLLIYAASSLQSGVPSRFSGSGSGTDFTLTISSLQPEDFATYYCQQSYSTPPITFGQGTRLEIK
notes: hIgG4 isotype control used
% inhibition; CNTF (20 pM) [1]: 46%
% inhibition; LIF (20 pM) [1]: 52%
% inhibition; OSM (100 pM) [1]: 62%
IC50 [M]; CNTF (20 pM) [1]: > 1e-07 M
IC50 [M]; LIF (20 pM) [1]: 9e-09 M
IC50 [M]; OSM (100 pM) [1]: > 5e-08 M

B6: bsAb21236D (bispecific antibody, V domains shown)
VH 1: QVQLQESGPGLVKPSQTLSLTCTVSGGSISSGGDYWSWIRQLPGKGLEWIGYIYYSGSAYYNPSLKSRGTISIDTSKNQFSLKLTSVTAADTAVYFCVKLRFLEWFLGGWFGPWGQGTLVTVSS
VH 2: QVQLVESGGGLVKPGGSLRLSCAASGFTFSDYYMTWIRQTPGKGLDWVSYISSSGTNKYNADSVKGRFTISRDNAKNSLYLQMNSLRAEDTAVYYCVRDPPWGMDVWGQGTTVTVSS
VL: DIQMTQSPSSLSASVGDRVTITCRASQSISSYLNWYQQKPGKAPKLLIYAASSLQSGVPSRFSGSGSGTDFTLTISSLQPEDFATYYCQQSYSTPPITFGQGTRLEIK
notes: LEPR x GP130 bispecific with common light chain; also called H4H21236D; bsAb21236 (LEPR × GP130)
Binding Ratio, normalized to unstained sample (FL4-A) [2]: 132 fold
100 nM mfGP130-MMH Bound (RU) [3]: 18 RU
Kd [3]: 179 nM
koff [3]: 0.0125 s⁻¹
kon [3]: 69800 M⁻¹ s⁻¹
t½ [3]: 0.9 min
100 nM hGP130-MMH Bound (RU) [4]: 12 RU
Kd [4]: 248 nM
koff [4]: 0.0148 s⁻¹
kon [4]: 59700 M⁻¹ s⁻¹
t½ [4]: 0.8 min

The next lines start with the values.

% inhibition; OSM (100 pM) [1]: 23%
IC50 [M]; OSM (100 pM) [1]: > 1e-07 M
B2: MAb16682 (antibody, V domains shown)
VH: EVQLVESGGGLVQPGGSLRLSCAASGFTFSTYWMNWVRQAPGKGLEWVANIKEDGSEKYYVDSVKGRFTISRDNAKNSLYLQMNSLRAEDTAVYYCAREGFGVVTYIWGQGTMVTVSS
VL: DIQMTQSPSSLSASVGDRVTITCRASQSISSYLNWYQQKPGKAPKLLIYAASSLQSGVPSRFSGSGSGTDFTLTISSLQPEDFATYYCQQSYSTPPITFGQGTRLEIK
notes: hIgG4 isotype control used

% inhibition; CNTF (20 pM) [1]: 22%
IC50 [M]; CNTF (20 pM) [1]: > 1e-07 M
B3: MAb16623 (antibody, V domains shown)
VH: EVQLVESGGGLVQPGGSLRLSCAASGLTFSSYEMNWVRQAPGKGLEWVSHISSAGSTKYYADSVKGRFTISRDNAKNSLFLQMNSLRAEDTAIYYCAGYNYAYYYFGVDVWGQGTTVTVSS
VL: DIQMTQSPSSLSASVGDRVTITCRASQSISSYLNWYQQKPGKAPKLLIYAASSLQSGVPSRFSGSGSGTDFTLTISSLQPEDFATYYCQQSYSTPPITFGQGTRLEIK
notes: hIgG4 isotype control used

Binding Ratio, normalized to unstained sample (FL4-A) [2]: 169 fold
100 nM mfGP130-MMH Bound (RU) [3]: 21 RU
Kd [3]: 215 nM
koff [3]: 0.00792 s⁻¹
kon [3]: 36900 M⁻¹ s⁻¹
t½ [3]: 1.5 min
100 nM hGP130-MMH Bound (RU) [4]: 19 RU
Kd [4]: 144 nM
koff [4]: 0.00879 s⁻¹
kon [4]: 61100 M⁻¹ s⁻¹
t½ [4]: 1.3 min
B7: bsAb21237D (bispecific antibody, V domains shown)
VH 1: EVQLVESGGGLVQPGGSLRLSCAASGFTFSNYGMTWVRQAPGKGLEWVSAITGGGGSTYYSNSVKGRFTISRDNSKNTVYLRMNSVRAEDTAVYYCAKYKWNFVDDWGQGTTVTVSS
VH 2: B6 VH 2
VL: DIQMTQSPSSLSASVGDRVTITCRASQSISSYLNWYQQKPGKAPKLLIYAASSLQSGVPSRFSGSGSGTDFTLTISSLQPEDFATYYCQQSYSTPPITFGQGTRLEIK
notes: LEPR x GP130 bispecific with common light chain; also called H4H21237D; bsAb21237 (LEPR × GP130)

% inhibition; CNTF (20 pM) [1]: 62%
% inhibition; LIF (20 pM) [1]: 76%
% inhibition; OSM (100 pM) [1]: 82%
IC50 [M]; CNTF (20 pM) [1]: > 1e-08 M
IC50 [M]; LIF (20 pM) [1]: > 1e-08 M
IC50 [M]; OSM (100 pM) [1]: > 1e-08 M
B8: MAb16636 (antibody, V domains shown)
VH: QLQLQESGPGLVKPSETLSLICTVSGGSISSNNYYWGWIRQPPGKGLEWIGNLYGSGSTYYNPSLKSRVTISVDTSKNQFSLKLSFVTAADTAVYHCARWDTNGGAFDIWGQGTMVTVSS
VL: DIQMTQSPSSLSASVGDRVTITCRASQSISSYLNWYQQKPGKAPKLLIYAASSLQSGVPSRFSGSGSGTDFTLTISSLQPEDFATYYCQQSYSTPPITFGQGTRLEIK
notes: hIgG4 isotype control used
